# Assay results reported in patent publication US12168773B2, “Engineered phosphoenolpyruvate carboxylase enzymes” (The Regents of the University of California, priority 2019, dated 2024).
# Experiments:
# [1] = molecular target: T1, Zea mays PPC1 (ZmPPC1, C4 PEPC) (Zea mays, UniProt P04711, A655V); assay: malate dehydrogenase coupled PEPC enzymatic assay, maize C4 PPC1 and engineered variants; format: biochemical; settings: Kcat/Km
# T1 construct: 6xHis (N); made in house; host or cells: E. coli BL21 CodonPlus (pET22b)
# Text: (§1) For both Arabidopsis C3 PPC1 (AtPPC1) and maize C4 PPC1 (ZmPPC1), the entire coding sequence for each was cloned into pET22b, which contains an amino-terminal 6×-HIS tag for protein purification, and expression was driven by the T7 promoter and lac operon. Relevant mutations were introduced by the Stratagene QuikChange mutagenesis kit using PCR amplification. Both wild type and mutant cDNA constructs were sequenced entirely following cloning into pet22b. Proteins were produced by growing transformed E. coli (BL21 CodonPlus) in autoinduction medium at 18° C. for 16 hours. Proteins were isolated by sonication of bacterial cells followed by passage over a nickel sepharose affinity column, elution with imidazole and separation on a GE SUPERDEX HILOAD 200 PG 16/60 all using an AKTA FPLC.
# (§2) Enzyme analysis was conducted in vitro using protein that was generated by expression in E. coli using the pET22b vector. For expression, pET22b constructs were transformed into E. coli BL21-DE3 codon plus RIL cells and grown at 37° C. in autoinduction media until reaching an OD=1 after which these were transferred to 18° C. for 18 hours. Samples were collected and lysed by sonication. Protein was purified by passage through a His-trap nickel affinity column on an Akta FPLC and then eluted with 400 mM imidazole. Partially purified protein was then separated on an FPLC equipped with a HiPrep S200 size exclusion column (16/60) after which collected sample was concentrated by centrifugation to a final concentration of 4 mg/ml in 50% glycerol. Samples were stored at −20° C.
# (§3) For enzymatic assays, a malate dehydrogenase coupled reaction was conducted with a range of substrate concentrations (0-7.5 mM phosphoenolpyruvate pyruvate) and a range of concentrations of allosteric inhibitor (0-50 mM malate). Assays were monitored using a Victor2 microplate reader at 25° C. Reactions consisted of […] PPC enzyme variants, 50 mM HEPES pH7.5, 10 mM MgCl2, 10 mM KHCO3 (carbonate substrate), 0.2 mM NADH, and 10 units/ml of malate dehydrogenase. Reaction time was 15 minutes and samples were measured on an ˜40 second interval. For measurement, which monitors loss of NADH, excitation wavelength was 340 nM and emission wavelength was 460 nM.
# [2] = tested on: Zea mays PPC1 (ZmPPC1, C4 PEPC); assay: as above; format: biochemical
# Text: as §1, §2, §3
# T1 sequence (P04711 whole entry A655V): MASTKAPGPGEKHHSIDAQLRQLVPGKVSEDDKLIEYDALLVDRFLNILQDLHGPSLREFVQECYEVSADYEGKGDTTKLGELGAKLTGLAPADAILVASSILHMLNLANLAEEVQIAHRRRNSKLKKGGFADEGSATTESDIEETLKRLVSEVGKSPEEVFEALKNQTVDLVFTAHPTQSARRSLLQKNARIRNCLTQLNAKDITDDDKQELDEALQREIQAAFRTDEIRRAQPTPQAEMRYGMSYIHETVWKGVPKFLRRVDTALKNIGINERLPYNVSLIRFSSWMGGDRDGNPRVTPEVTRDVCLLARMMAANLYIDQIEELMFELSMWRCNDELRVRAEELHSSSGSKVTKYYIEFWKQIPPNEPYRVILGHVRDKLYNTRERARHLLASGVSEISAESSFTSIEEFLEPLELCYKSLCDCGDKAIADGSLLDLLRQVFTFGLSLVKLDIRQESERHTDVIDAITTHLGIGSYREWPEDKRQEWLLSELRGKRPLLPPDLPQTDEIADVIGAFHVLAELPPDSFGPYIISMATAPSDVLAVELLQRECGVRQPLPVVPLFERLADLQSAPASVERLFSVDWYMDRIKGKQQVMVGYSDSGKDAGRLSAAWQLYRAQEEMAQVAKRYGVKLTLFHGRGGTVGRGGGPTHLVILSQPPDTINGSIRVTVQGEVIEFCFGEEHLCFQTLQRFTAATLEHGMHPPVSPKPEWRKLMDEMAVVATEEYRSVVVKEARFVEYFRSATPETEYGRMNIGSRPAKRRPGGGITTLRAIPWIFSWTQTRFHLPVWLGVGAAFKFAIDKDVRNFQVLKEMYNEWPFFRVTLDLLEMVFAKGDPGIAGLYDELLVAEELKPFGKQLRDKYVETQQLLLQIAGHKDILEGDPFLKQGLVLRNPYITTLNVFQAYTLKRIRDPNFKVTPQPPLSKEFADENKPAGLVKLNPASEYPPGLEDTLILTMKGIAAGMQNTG
molecule,measurement,setting,value
ZmPPC1 A651V: engineered Zea mays PPC1 with A651V substitution (A655V in SEQ ID NO:15) (protein) MASTKAPGPGEKHHSIDAQLRQLVPGKVSEDDKLIEYDALLVDRFLNILQDLHGPSLREFVQECYEVSADYEGKGDTTKLGELGAKLTGLAPADAILVASSILHMLNLANLAEEVQIAHRRRNSKLKKGGFADEGSATTESDIEETLKRLVSEVGKSPEEVFEALKNQTVDLVFTAHPTQSARRSLLQKNARIRNCLTQLNAKDITDDDKQELDEALQREIQAAFRTDEIRRAQPTPQDEMRYGMSYIHETVWKGVPKFLRRVDTALKNIGINERLPYNVSLIRFSSWMGGDRDGNPRVTPEVTRDVCLLARMMAANLYIDQIEELMFELSMWRCNDELRVRAEELHSSSGSKVTKYYIEFWKQIPPNEPYRVILGHVRDKLYNTRERARHLLASGVSEISAESSFTSIEEFLEPLELCYKSLCDCGDKAIADGSLLDLLRQVFTFGLSLVKLDIRQESERHTDVIDAITTHLGIGSYREWPEDKRQEWLLSELRGKRPLLPPDLPQTDEIADVIGAFHVLAELPPDSFGPYIISMATAPSDVLAVELLQRECGVRQPLPVVPLFERLADLQSAPASVERLFSVDWYMDRIKGKQQVMVGYSDSGKDAGRLSAAWQLYRAQEEMAQVAKRYGVKLTLFHGRGGTVGRGGGPTHLVILSQPPDTINGSIRVTVQGEVIEFCFGEEHLCFQTLQRFTAATLEHGMHPPVSPKPEWRKLMDEMAVVATEEYRSVVVKEARFVEYFRSATPETEYGRMNIGSRPAKRRPGGGITTLRAIPWIFSWTQTRFHLPVWLGVGAAFKFAIDKDVRNFQVLKEMYNEWPFFRVTLDLLEMVFAKGDPGIAGLYDELLVAEELKPFGKQLRDKYVETQQLLLQIAGHKDILEGDPFLKQGLVLRNPYITTLNVFQAYTLKRIRDPNFKVTPQPPLSKEFADENKPAGLVKLNPASEYPPGLEDTLILTMKGIAAGMQNTG,increase in catalytic efficiency relative to wt ZmPPC1,[1],> 7 fold
same,effects of the allosteric inhibitor malate relative to wt ZmPPC1,[2],greatly reduce
same,Km,"[2]; 0-7.5 mM phosphoenolpyruvate, 25° C, HEPES pH7.5, read-out: Km PEP",477 ± 42 µM
same,Vmax,"[2]; 25° C, HEPES pH7.5",12.84 ± 0.89 units/mg
same,effect of malate on enzyme,[2]; at 50 mM malate,wholly unaffected
same,activity of C4 PEPC,[2]; substitution introduced into maize C4 PEPC (ZmPPC1),increased activity
